Legend:
[1] = target: T1, retinol binding protein (His-RBP) (UniProt P02753 19-201); experiment: SPR; apo-RBP (6.9-219.3 uM) flowed over STRA6-GFP captured by its c-Myc tag on immobilised anti-c-Myc antibody (CM5, Biacore 3000); anti-HA antibody reference cell; room temperature; steady-state responses fitted to one site plus a linear low-affinity component; triplicate; details: both partners purified
[2] = target: T1, retinol binding protein (His-RBP); experiment: SPR; holo-RBP (retinol-loaded, 6.9-219.3 uM) flowed over STRA6-GFP captured by its c-Myc tag on immobilised anti-c-Myc antibody (CM5, Biacore 3000); anti-HA antibody reference cell; room temperature; steady-state responses fitted to one site plus a linear low-affinity component; triplicate; details: both partners purified

Kd [1]: 22.4 µM
Kd [2]: 19.4 µM
B1: STRA6-GFP-c-Myc-His6 (STRA6-HRV3C-eGFP-Myc-His6) (receptor, human)
chain: MSSQPAGNQTSPGATEDYSYGSWYIDEPQGGEELQPEGEVPSCHTSIPPGLYHACLASLSILVLLLLAMLVRRRQLWPDCVRGRPGLPSPVDFLAGDRPRAVPAAVFMVLLSSLCLLLPDEDALPFLTLASAPSQDGKTEAPRGAWKILGLFYYAALYYPLAACATAGHTAAHLLGSTLSWAHLGVQVWQRAECPQVPKIYKYYSLLASLPLLLGLGFLSLWYPVQLVRSFSRRTGAGSKGLQSSYSEEYLRNLLCRKKLGSSYHTSKHGFLSWARVCLRHCIYTPQPGFHLPLKLVLSATLTGTAIYQVALLLLVGVVPTIQKVRAGVTTDVSYLLAGFGIVLSEDKQEVVELVKHHLWALEVCYISALVLSCLLTFLVLMRSLVTHRTNLRALHRGAALDLSPLHRSPHPSRQAIFCWMSFSAYQTAFICLGLLVQQIIFFLGTTALAFLVLMPVLHGRNLLLFRSLESSWPFWLTLALAVILQNMAAHWVFLETHDGHPQLTNRRVLYAATFLLFPLNVLVGAMVATWRVLLSALYNAIHLGQMDLSLLPPRAATLDPGYYTYRNFLKIEVSQSHPAMTAFCSLLLQAQSLLPRTMAAPQDSLRPGEEDEGMQLLQTKDSMAKGARPGASRGRARWGLAYTLLHNPTLQVFRKTALLGANGAQP
notes: human STRA6, full length (transcript variant 2); In SPR it was held by its C-terminal c-Myc tag on an anti-c-Myc antibody; also called vitamin A transporter/RBP receptor; RBP receptor; source: Pichia pastoris KM71H (pPICZ-A); on whole cells, in broken cells, and purified (solubilised in C12E9, Ni-NTA with exchange to DDM, size exclusion); not shown: GFP (eGFP), C-terminal, kept; c-Myc, …
